Source: IntAct's records for PubMed 17891154

What follows are substances tested against vps29_human VPS29 (UniProt Q9UBQ0).

Substance | effect of a mutation on the interaction
Vacuolar protein sorting-associated protein 35 (Homo sapiens) (from UniProt Q96QK1) F534D;F541D | disrupting interaction strength
Vacuolar protein sorting-associated protein 35 (Homo sapiens) (from UniProt Q96QK1) H769A;N772A;H776A | disrupting interaction strength
Vacuolar protein sorting-associated protein 35 (Homo sapiens) (from UniProt Q96QK1) L579D;R582D;Q586A;L589D | disrupting interaction strength
Vacuolar protein sorting-associated protein 35 (Homo sapiens) (from UniProt Q96QK1) N725A;Y729A | disrupting interaction strength
Vacuolar protein sorting-associated protein 35 (Homo sapiens) (from UniProt Q96QK1) T629D;L630A;G633D;R637D | disrupting interaction strength
Vacuolar protein sorting-associated protein 35 (Homo sapiens) (from UniProt Q96QK1) T672D;H675D | disrupting interaction strength
